Where a chain is given by its changes, count along the chain named. Names and notes keep the numbering of the source. Read-outs that look alike come from different tables or passages of the source. Each block holds one binder with its values, some of them ahead of it.
Assays:
[1] = biological target: T1, monomeric huBDCA2 ectodomain (human, UniProt Q8WTT0 45-213); assay: Octet, mAb from conditioned medium on anti-human Fc tips, monomeric huBDCA2 in solution
T1 construct: Prepared by proteolytic cleavage of the purified muIgG2a Fc-huBDCA2 fusion protein (pEAG2423); also called human BDCA2 ectodomain; human BDCA2 ECD
T1 sequence: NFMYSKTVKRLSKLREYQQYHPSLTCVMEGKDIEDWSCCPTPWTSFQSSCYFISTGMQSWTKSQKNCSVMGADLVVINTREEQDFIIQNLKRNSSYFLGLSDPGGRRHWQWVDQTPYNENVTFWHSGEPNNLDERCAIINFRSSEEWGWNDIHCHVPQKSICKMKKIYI
Procedure: (§1) Backmutation to the unpaired cysteine, i.e., S95C, was constructed by site-directed mutagenesis producing plasmid pYL749. Variants S95T, S95A, and S95V were constructed by site-directed mutagenesis producing plasmids pYL750, pYL751, and pYL752, respectively. The full-length light chain cDNA sequences in the resultant plasmids were confirmed by DNA sequencing. […] Conditioned medium was harvested at 2 days post-transfection. […] Conditioned medium containing the C95 variant mAbs was assayed by Octet for binding to human BDCA2 ectodomain. Antibodies from conditioned medium from transiently transfected cells were bound to anti-human Fc tips, then monomeric huBDCA2 was flowed over the Octet tips, to examine binding and dissociation.

[2] = biological target: T1, monomeric huBDCA2 ectodomain; assay: as above; remark: listed apart in the source
Procedure: The monomeric huBDCA2 ectodomain was prepared by proteolytic cleavage from the purified muIgG2a Fc-huBDCA2 fusion protein (relevant plasmid: pEAG2423). Antibodies from conditioned medium from transiently transfected cells were bound to anti-human Fc tips, and then monomeric huBDCA2 was flowed over the Octet tips, to examine binding and dissociation.

[3] = biological target: T2, human BDCA2 (full-length, cell surface) (human, UniProt Q8WTT0 1-213); assay: direct binding FACS, conditioned medium on CHO cells co-expressing human BDCA2 and FcεRIγ; column C (midpoint) of the printed 4-P fit, X in ng/ml; A 8.32, B 1, D 102, R^2 0.999
T2 construct: also called huBDCA2; surface human BDCA2
T2 sequence: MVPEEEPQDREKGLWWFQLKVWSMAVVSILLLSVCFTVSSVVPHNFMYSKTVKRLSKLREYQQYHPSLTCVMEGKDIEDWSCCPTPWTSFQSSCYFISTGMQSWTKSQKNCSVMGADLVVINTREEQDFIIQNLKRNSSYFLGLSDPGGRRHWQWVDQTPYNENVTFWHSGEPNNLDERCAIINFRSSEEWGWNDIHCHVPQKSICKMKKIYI
Procedure: (§2) Conditioned medium was assayed by direct binding FACS on stably transfected DG44 CHO cells co-expressing full-length BDCA2 and FcεRIγ cDNAs (human or cynomolgus monkey), (relevant expression vectors are human BDCA2/FcεRIγ: pEAG2456, cyno BDCA2/FcεRIγ: pEAG2668).

[4] = biological target: T3, cynomolgus monkey BDCA2 (full-length, cell surface, E73 SNP form) (cynomolgus monkey, UniProt Q8WTT0 1-213 (human entry)); assay: direct binding FACS, conditioned medium on CHO cells co-expressing cynomolgus BDCA2 and FcεRIγ; column C (midpoint) of the printed 4-P fit, X in ng/ml; A 3.13, B 0.874, D 71.9, R^2 0.998
T3 construct: also called cyno BDCA2; surface cynomolgus monkey BDCA2
T3 chain: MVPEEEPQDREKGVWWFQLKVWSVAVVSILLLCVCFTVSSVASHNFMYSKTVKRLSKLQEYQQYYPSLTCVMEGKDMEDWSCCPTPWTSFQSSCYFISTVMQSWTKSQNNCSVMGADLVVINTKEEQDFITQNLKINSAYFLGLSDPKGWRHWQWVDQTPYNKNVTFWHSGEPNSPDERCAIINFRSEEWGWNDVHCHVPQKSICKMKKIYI
Procedure: as §2

[5] = biological target: T2, human BDCA2 (full-length, cell surface); assay: direct binding FACS, conditioned medium on CHO cells co-expressing human BDCA2 and FcεRIγ; column C (midpoint) of the printed 4-P fit, X in ng/ml; A 6.16, B 0.839, D 115, R^2 0.998
Procedure: as §2

[6] = biological target: T3, cynomolgus monkey BDCA2 (full-length, …); assay: direct binding FACS, conditioned medium on CHO cells co-expressing cynomolgus BDCA2 and FcεRIγ; column C (midpoint) of the printed 4-P fit, X in ng/ml; A 4.01, B 1.09, D 68.9, R^2 0.998
Procedure: as §2

[7] = biological target: T2, human BDCA2 (full-length, cell surface); assay: direct binding FACS, conditioned medium on CHO cells co-expressing human BDCA2 and FcεRIγ; column C (midpoint) of the printed 4-P fit, X in ng/ml; A 5.67, B 0.857, D 96.6, R^2 0.999
Procedure: as §2

[8] = biological target: T3, cynomolgus monkey BDCA2 (full-length, …); assay: direct binding FACS, conditioned medium on CHO cells co-expressing cynomolgus BDCA2 and FcεRIγ; column C (midpoint) of the printed 4-P fit, X in ng/ml; A 2.43, B 0.789, D 70.7, R^2 0.999
Procedure: as §2

[9] = biological target: T2, human BDCA2 (full-length, cell surface); assay: direct binding FACS, conditioned medium on CHO cells co-expressing human BDCA2 and FcεRIγ; column C (midpoint) of the printed 4-P fit, X in ng/ml; A 3.85, B 0.622, D 97.2, R^2 0.999
Procedure: as §2

[10] = biological target: T3, cynomolgus monkey BDCA2 (full-length, …); assay: direct binding FACS, conditioned medium on CHO cells co-expressing cynomolgus BDCA2 and FcεRIγ; column C (midpoint) of the printed 4-P fit, X in ng/ml; A 1.62, B 0.79, D 41.8, R^2 1; the fit is extrapolated: the highest point drawn is at about 4000 ng/ml with MFI about 16, no plateau
Procedure: as §2

[11] = biological target: T1, monomeric huBDCA2 ectodomain; assay: Octet, monomeric huBDCA2
Procedure: as §1

Kd [1]: 0.548 nM
koff [1]: 0.000398 s⁻¹
kon [1]: 727000 M⁻¹ s⁻¹
Kd [2]: 0.744 nM
koff [2]: 0.000408 s⁻¹
kon [2]: 549000 M⁻¹ s⁻¹
EC50 [3]: 0.2 µg/mL
EC50 [4]: 0.21 µg/mL
B1: hu24F4 H4/L1 (C95S) (antibody, V domains shown)
VH: DVQLVESGGGLVKPGGSLRLSCAASGFTFSTYTMSWVRQAPGKGLEWVATISPGDSFGYYYPDSVQGRFTISRDNAKNSLYLQMNSLRAEDTAVYYCTRDIYYNYGAWFAYWGQGTLVTVSS
VL: DIQLTQSPSSLSASVGDRVTITCKASQSVDYDGDSYMNWYQQKPGKAPKLLIYAASTLESGVPSRFSGSGSGTDFTLTISSLQPEDFATYYCQQSNEDPRTFGQGTKVEIK
notes: Human IgG1/kappa; also called 24F4-H4/L1 (YL740/YL746); 24F4S

EC50 [5]: 0.309 µg/mL
EC50 [6]: 0.228 µg/mL
B2: hu24F4 H5/L1 (antibody, V domains shown)
VH: B1 VH with E6Q, S86R, Q114R
VL: B1 VL
notes: Humanized variant, human IgG1/kappa, conditioned medium of 293E cells; also called H5 series of hu24F4

EC50 [7]: 0.359 µg/mL
EC50 [8]: 0.501 µg/mL
B3: hu24F4 H6/L1 (antibody, V domains shown)
VH: B1 VH with P53G, D55N, S56N, F57Y, Y60S, Q66K
VL: B1 VL
notes: Humanized variant, human IgG1/kappa, conditioned medium of 293E cells; also called H6 series of hu24F4

Kd [2]: 13 nM
koff [2]: 0.00586 s⁻¹
kon [2]: 452000 M⁻¹ s⁻¹
EC50 [9]: 0.984 µg/mL
EC50 [10]: 7.67 µg/mL
B4: hu24F4 H3/L1 (antibody, V domains shown)
VH: B1 VH with D1E, A49S, T98A
VL: B1 VL
notes: Humanized variant, human IgG1/kappa, conditioned medium of 293E cells; also called H3 series of hu24F4

binding result [11]: binds
B5: hu24F4 H5/L1 C95T (antibody, human IgG1, V domains shown)
VH: B1 VH with E6Q, S86R, Q114R
VL: B1 VL with S95T
notes: Heavy chain pYL747 with light chain pYL750; human IgG1/kappa; also called H5/L1 C95T variant
